From patent US20230203202A1

Assays:
[1] = biological target: poly-specificity reagent (PSR); experiment: flow cytometry PSR assay on protein A beads; same quadrant without PSR: 9.17E-3
[2] = biological target: poly-specificity reagent (PSR); experiment: flow cytometry PSR assay on protein A beads; same quadrant without PSR: 0.046
[3] = biological target: poly-specificity reagent (PSR); experiment: flow cytometry PSR assay on protein A beads; same quadrant without PSR: 0.025
[4] = biological target: poly-specificity reagent (PSR); experiment: flow cytometry PSR assay on protein A beads; same quadrant without PSR: 0

Row | Q3 (Expression-FITC low, Binding-PE high), + PSR [1] | Q2 (Expression-FITC high, Binding-PE high), + PSR [2] | Q2 (Expression-FITC high, Binding-PE high), + PSR [3] | Q3 (Expression-FITC low, Binding-PE high), + PSR [4] | Substance
1 | 0.82 | 69.8 | – | – | Rituximab (antibody)
2 | – | – | 0.37 | 0.049 | Trastuzumab (antibody)
